Substrate in the data set: O=C(/C=C/c1ccc(O)c(O)c1)O[C@@H]1C[C@](O)(C(=O)O)C[C@@H](O)[C@H]1O
The data set is described as follows: purified protein. The following applies: 5-CQA as sole substrate (acyl donor and acceptor), 0-30 mM, enzyme from N. benthamiana, optimum pH 6.3 and 39.9 °C, pH and temperature of the Km assay not given.

B1: IbICS (Ipomoea batatas) (protein)
chain: CYSAVFGFGDSLTDAGNLIRLEPDGTVPHMYFPPYGETYFDKPTGRCSDGRLIVDLIAQHYGLPLPPPSIPASLEGDKNRLRAGVNFAVVGSRALDAQFYEQRDIFDTVTNVSMTDQLNWFKELLPSLCSSPHDCKELLDGSLFVLGEFGGNDYTHSLLSGKGINVIRPFIPIVTRAIAQAVHELVELGARTVMIPSVLPLGCAASYLTYYPSPNPDDYDELGCLIWVNEMASYHNQLLQQQLAHVRELHPYANIVFADIYNAAMEVYQGPDTYGFSGGALRACCGGGGPYNFNTSAQCGNEGATACDNPSSYVNWDGYHLTEAAYQCITTGLLEGPYTYPRMKNLCRFDSRKTSRVAQI
B1: the Km amounted to 3.5 mM.

By Km is commonly meant the concentration of substrate that gives half-maximal velocity.

The record behind these values is publication PMC7666189.
